The record followed here is article PMC11784142, “About bacteriophage tail terminator and tail completion proteins: structure of the proximal extremity of siphophage T5 tail” (Journal of Virology, 2024).

The chains are these.
B5: Baseplate Hub Protein pb3 of bacteriophage T5 (natural protein, UniProt Q6QGE9 1-949, looked up)
chain: MKKILDSAKNYLNTHDKLKTACLIALELPSSSGSAATYIYLTDYFRDVTYNGILYRSGKVKSISSHKQNRQLSIGSLSFTITGTAEDEVLKLVQNGVSFLDRGITIHQAIINEEGNILPVDPDTDGPLLFFRGRITGGGIKDNVNTSGIGTSVITWNCSNQFYDFDRVNGRYTDDASHRGLEVVNGTLQPSNGAKRPEYQEDYGFFHSNKSTTILAKYQVKEERYKLQSKKKLFGLSRSYSLKKYYETVTKEVDLDFNLAAKFIPVVYGVQKIPGIPIFADTELNNPNIVYVVYAFAEGEIDGFLDFYIGDSPMICFDETDSDTRTCFGRKKIVGDTMHRLAAGTSTSQPSVHGQEYKYNDGNGDIRIWTFHGKPDQTAAQVLVDIAKKKGFYLQNQNGNGPEYWDSRYKLLDTAYAIVRFTINENRTEIPEISAEVQGKKVKVYNSDGTIKADKTSLNGIWQLMDYLTSDRYGADITLDQFPLQKVISEAKILDIIDESYQTSWQPYWRYVGWNDPLSENRQIVQLNTILDTSESVFKNVQGILESFGGAINNLSGEYRITVEKYSTNPLRINFLDTYGDLDLSDTTGRNKFNSVQASLVDPALSWKTNSITFYNSKFKEQDKGLDKKLQLSFANITNYYTARSYADRELKKSRYSRTLSFSVPYKFIGIEPNDPIAFTYERYGWKDKFFLVDEVENTRDGKINLVLQEYGEDVFINSEQVDNSGNDIPDISNNVLPPRDFKYTPTPGGVVGAIGKNGELSWLPSLTNNVVYYSIAHSGHVNPYIVQQLENNPNERMIQEIIGEPAGLAIFELRAVDINGRRSSPVTLSVDLNSAKNLSVVSNFRVVNTASGDVTEFVGPDVKLAWDKIPEEEIIPEIYYTLEIYDSQDRMLRSVRIEDVYTYDYLLTYNKADFALLNSGALGINRKLRFRIRAEGENGEQSVGWATI
notes: Baseplate Hub Protein pb3 (BHP) of bacteriophage T5; Native protein of the purified tail tip; trimer; also called BHPpb3; source: E. coli strain F infected with the mutant phage T5D20am30d; part of purified T5 tails

Data set [1] deals with the molecule itself. The experiment in a line: cryo-EM structure; tail tip of native purified T5 tails; particles recentred on the lower part of BHPpb3, symmetry relaxation, no symmetry imposed; 6–10 Å in the area of the additional density; AlphaFold2 model of TCP_(p143) flexibly fitted.
The target of data set [2] is B5. Described as above. The note with it: partners not purified.
Data set [3] deals with the molecule itself. The experiment in a line: cryo-EM structure; proximal extremity of native T5 tails (assembled in infected E. coli, purified as whole tails); single particle analysis, C3 symmetry imposed, 3.88 Å.

B1: distal tail protein pb9 of bacteriophage T5 (natural protein, UniProt Q6QGE8 1-204, looked up)
chain: MRLPDPYTNPEYPGLGFESVNLVDNDPMIRDELPNGKVKEVKISAQYWGINISYPELFPDEYAFLDSRLLEYKRTGDYLDVLLPQYEAFRVRGDTKSVTIPAGQKGSQIILNTNGTLTGQPKAGDLFKLSTHPKVYKITNFSSSGNVWNISLYPDLFITTTGSEKPVFNGILFRTKLMNGDSFGSTLNNNGTYSGISLSLRESL
notes: distal tail protein pb9 (DTP) of bacteriophage T5; Native protein of the purified tail tip; hexamer; also called DTPpb9; source: E. coli strain F infected with the mutant phage T5D20am30d; part of purified T5 tails
The stoichiometry N is a count of units in the complex or per binding partner. On to B1, for which, in data set [1], the “stoichiometry N” value amounted to 6.

B2: tail completion protein p143 of bacteriophage T5 (natural protein, UniProt Q6QGE0 1-255, looked up)
chain: MSLSDLARQIIKEQLDTASRSENNKNTVVYSVETGLKDPTRDGTVAQVSFKFSKPVSQDLLNIRTASILKAVSSSLDLSGDLGALENLIQATAGKKSSVGKKRSTGRVQVNFGDPSDVEDGYSGAVTGASGRFVSNSNMKIILEIVAKEYLIKDMKKAGAPLKFRTGRFANSLKIKDVMLRDSETSKGSPELNVTYNYMTRPYSVFNPAVSTYRRLSLRPYPGARNPQKLIGEAIAKAARDLIHSRYKIKVNQGT
notes: tail completion protein p143 (TCP) of bacteriophage T5; 27.8 kDa, 255 residues; Native protein of the purified tail; the density was assigned to it by the fit of an AlphaFold2 model and because it was the only tail protein not yet localised; also called TCP_(p143); Neck1; source: E. coli strain F infected with the mutant phage T5D20am30d; part of purified T5 tails
With B2, the “stoichiometry N” value in data set [2] came to 1 copy per phage.

B3: tail terminator protein p142 of bacteriophage T5 (natural protein, UniProt Q6QGE1 1-161, looked up)
chain: MDHRTSIAQAMVDRISKQMDGSQPDEYFNNLYGNVSRQTYKFEEIREFPYVAVHIGTETGQYLPSGQQWMFLELPILVYDKEKTDIQEQLEKLVADIKTVIDTGGNLEYTVSKPNGSTFPCEATDMIITSVSTDEGLLAPYGLAEINVTVRYQPPRRSLRR
notes: tail terminator protein p142 (TrP) of bacteriophage T5; a 161-residues protein; model compared over 156 residues; Native phage-encoded protein as it stands in the purified tail; hexameric ring that caps the tail tube; also called TrP_(p142); Trp_(p142); source: E. coli strain F infected with the mutant phage T5D20am30d; part of purified T5 tails (PEG precipitation, glycerol step gradient, ion …)
As for B3, the “stoichiometry N” value in data set [3] came to 6.

B4: tail tube protein pb6 of bacteriophage T5 (natural protein, UniProt Q6QGE2 1-464, looked up)
chain: MSLQLLRNTRIFVSTVKTGHNKTNTQEILVQDDISWGQDSNSTDITVNEAGPRPTRGSKRFNDSLNAAEWSFSTYILPYKDKNTSKQIVPDYMLWHALSSGRAINLEGTTGAHNNATNFMVNFKDNSYHELAMLHIYILTDKTWSYIDSCQINQAEVNVDIEDIGRVTWSGNGNQLIPLDEQPFDPDQIGIDDETYMTIQGSYIKNKLTILKIKDMDTNKSYDIPITGGTFTINNNITYLTPNVMSRVTIPIGSFTGAFELTGSLTAYLNDKSLGSMELYKDLIKTLKVVNRFEIALVLGGEYDDERPAAILVAKQAHVNIPTIETDDVLGTSVEFKAIPSDLDAGDEGYLGFSSKYTRTTINNLIVNGDGATDAVTAITVKSAGNVTTLNRSATLQMSVEVTPSSARNKEVTWAITAGDAATINATGLLRADASKTGAVTVEATAKDGSGVKGTKVITVTAGG
notes: tail tube protein pb6 (TTP) of bacteriophage T5; structures compared over the 464 residues; Native phage-encoded protein as it stands in the purified tail; trimeric ring (last ring of the tube, under the p142 ring); also called TTPpb6; source: E. coli strain F infected with the mutant phage T5D20am30d; part of purified T5 tails (PEG precipitation, glycerol step gradient, ion exchange)
With B4, the “stoichiometry N” value in data set [3] stood at 3.

Regarding B5, in data set [1], the “stoichiometry N” value stood at 3.
